# Reference: article PMC7203112, “Structural basis for the complex DNA binding behavior of the plant stem cell regulator WUSCHEL”
# Numbering of substitutions follows the chain as printed.
# T1: WUS-HD T35R (Arabidopsis thaliana, UniProt Q9SB92 34-103, T35R)
# T1 sequence: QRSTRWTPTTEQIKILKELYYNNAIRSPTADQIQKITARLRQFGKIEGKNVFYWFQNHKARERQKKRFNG
# T2: MBP-WUS-FL (Arabidopsis thaliana, UniProt Q9SB92 1-292)
# T2 sequence: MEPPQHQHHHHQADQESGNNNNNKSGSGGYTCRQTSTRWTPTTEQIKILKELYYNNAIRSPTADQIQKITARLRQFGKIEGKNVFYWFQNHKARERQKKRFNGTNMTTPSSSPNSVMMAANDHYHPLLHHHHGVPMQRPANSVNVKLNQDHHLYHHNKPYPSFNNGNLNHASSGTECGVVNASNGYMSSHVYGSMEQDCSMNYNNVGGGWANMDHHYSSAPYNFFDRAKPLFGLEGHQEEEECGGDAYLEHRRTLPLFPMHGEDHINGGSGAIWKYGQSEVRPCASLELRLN
# T3: WUS-HD S36R (Arabidopsis thaliana, UniProt Q9SB92 34-103, S36R)
# T3 sequence: T1 sequence with R2T, S3R
# T4: WUS-HD F101A (Arabidopsis thaliana, UniProt Q9SB92 34-103, F101A)
# T4 sequence: T1 sequence with R2T, F68A
# T5: WUS-HD R94K (Arabidopsis thaliana, UniProt Q9SB92 34-103, R94K)
# T5 sequence: T1 sequence with R2T, R61K
# T6: WUS-HD RRK (Arabidopsis thaliana, UniProt Q9SB92 34-103, T35R;S36R;R94K)
# T6 sequence: T1 sequence with S3R, R61K
# B1: f_TGAA (dsDNA)
# DNA 1: CATCGTCGTTCATTCAATGGG
# DNA 2: CCCATTGAATGAACGACGATG
# B2: f_TAAT (dsDNA)
# DNA 1: CAATGTGTTAATGGGTTGTT
# DNA 2: AACAACCCATTAACACATTG
# Legend:
# [1] = biological target: T1, WUS-HD T35R; assay: EMSA; MST: 20 mM Tris-HCl pH 8.0, 75 mM NaCl, 10 mM MgCl2, 0.05% Tween-20, 20 C, 50 nM YFP-WUS; ITC: same without Tween, 20 C; EMSA: 10 mM Tris-HCl pH 8.0, 75 mM NaCl, 50 ug/ml poly(dI-dC), 1 mM EDTA, 1 mM DTT, 5% glycerol; settings: protein: recombinant; tags: none after TEV cleavage; label: Cy5; blunt
# [2] = biological target: T2, MBP-WUS-FL; assay: as above; settings: protein: recombinant; tags: N-terminal His6-MBP; chain copies: 2; label: Cy5; blunt
# [3] = biological target: T3, WUS-HD S36R; assay: as above; settings: protein: recombinant; tags: none after TEV cleavage; label: Cy5; blunt
# [4] = biological target: T4, WUS-HD F101A; assay: EMSA; predominantly monomer; probe called 2xTGAA; MST: 20 mM Tris-HCl pH 8.0, 75 mM NaCl, 10 mM MgCl2, 0.05% Tween-20, 20 C, 50 nM YFP-WUS; ITC: same without Tween, 20 C; EMSA: 10 mM Tris-HCl pH 8.0, 75 mM NaCl, 50 ug/ml poly(dI-dC), 1 mM EDTA, 1 mM DTT, 5% glycerol; settings: protein: recombinant; tags: none after TEV cleavage; label: Cy5; blunt
# [5] = biological target: T5, WUS-HD R94K; assay: EMSA; like wt; MST: 20 mM Tris-HCl pH 8.0, 75 mM NaCl, 10 mM MgCl2, 0.05% Tween-20, 20 C, 50 nM YFP-WUS; ITC: same without Tween, 20 C; EMSA: 10 mM Tris-HCl pH 8.0, 75 mM NaCl, 50 ug/ml poly(dI-dC), 1 mM EDTA, 1 mM DTT, 5% glycerol; settings: protein: recombinant; tags: none after TEV cleavage; label: Cy5; blunt
# [6] = biological target: T1, WUS-HD T35R; assay: EMSA; predominantly monomer; MST: 20 mM Tris-HCl pH 8.0, 75 mM NaCl, 10 mM MgCl2, 0.05% Tween-20, 20 C, 50 nM YFP-WUS; ITC: same without Tween, 20 C; EMSA: 10 mM Tris-HCl pH 8.0, 75 mM NaCl, 50 ug/ml poly(dI-dC), 1 mM EDTA, 1 mM DTT, 5% glycerol; settings: protein: recombinant; tags: none after TEV cleavage; label: Cy5; blunt
# [7] = biological target: T3, WUS-HD S36R; assay: as above; settings: protein: recombinant; tags: none after TEV cleavage; label: Cy5; blunt
# [8] = biological target: T6, WUS-HD RRK; assay: EMSA; similar to T35R and S36R; MST: 20 mM Tris-HCl pH 8.0, 75 mM NaCl, 10 mM MgCl2, 0.05% Tween-20, 20 C, 50 nM YFP-WUS; ITC: same without Tween, 20 C; EMSA: 10 mM Tris-HCl pH 8.0, 75 mM NaCl, 50 ug/ml poly(dI-dC), 1 mM EDTA, 1 mM DTT, 5% glycerol; settings: protein: recombinant; tags: none after TEV cleavage; label: Cy5; blunt
Binder,binding result [1],Kd [2] [nM],binding result [3],binding result [4],binding result [5],binding result [6],binding result [7],binding result [8]
B1,binds,360 ± 60,binds,binds,,,,
B2,,3150 ± 260,,,binds,binds,binds,binds
